Experimental data published in patent US20220235345A1 (University of California, published 2022).
Ends that are not written are not given here.

Tests used:
[1] = target: 35S-labeled human Scc1 fragment (residues 142-300) (UniProt O60216)
[2] = system: Mca-DDREIMREGS-Dnp peptide containing Scc1 site 1
[3] = target: separase biosensor H2B-mRuby2-Scc1(142-467)-mNeonGreen with 255Leu-Pro to Ala-Ala (UniProt O60216)
[4] = target: separase biosensor H2B-mRuby2-Scc1(142-467)-mNeonGreen with deletion of Scc1 aa 251 to 260 (UniProt O60216)
[5] = target: T1, separase biosensor H2B-mRuby2-Scc1(142-467)-mNeonGreen, wild-type (UniProt O60216)
T1 sequence (O60216 whole entry, looked up): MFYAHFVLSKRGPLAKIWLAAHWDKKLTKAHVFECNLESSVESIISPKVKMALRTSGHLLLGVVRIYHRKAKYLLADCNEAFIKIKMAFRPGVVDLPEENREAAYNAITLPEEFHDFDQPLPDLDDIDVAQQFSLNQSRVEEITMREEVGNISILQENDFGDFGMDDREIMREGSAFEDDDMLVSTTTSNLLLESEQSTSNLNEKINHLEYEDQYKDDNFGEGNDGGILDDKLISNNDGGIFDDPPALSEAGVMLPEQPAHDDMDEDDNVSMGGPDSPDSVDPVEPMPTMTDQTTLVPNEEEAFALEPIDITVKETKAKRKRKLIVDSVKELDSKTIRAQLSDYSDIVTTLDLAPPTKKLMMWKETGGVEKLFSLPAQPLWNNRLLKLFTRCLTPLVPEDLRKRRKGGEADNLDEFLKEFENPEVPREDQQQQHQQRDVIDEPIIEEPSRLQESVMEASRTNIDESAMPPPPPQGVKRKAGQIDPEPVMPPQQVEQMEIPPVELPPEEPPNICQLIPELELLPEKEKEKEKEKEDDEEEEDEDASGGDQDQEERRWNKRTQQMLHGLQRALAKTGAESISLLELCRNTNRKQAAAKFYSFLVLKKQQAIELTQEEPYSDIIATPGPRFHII

[6] = target: catalytically-dead separase with intact autocleavage sites (UniProt Q14674)
[7] = system: securin^RE fragment containing residues 93-150
[8] = target: T2, active human separase, securin-free (ClpXP-activated separase obtained from the securin-separase fusion after … (human, UniProt Q14674 1-2120)); assay: in vitro cleavage of 35S-labeled securin^RE fragments with LP mutations by separase; interaction inferred from cleavage
T2 construct: also called active separase; apo separase; not shown: N-terminal remnant left after TEV cleavage of the fusion (3x FLAG tag between TEV site and separase)
From the text: An approach for investigating the importance of ¹³⁰LPE for securin binding to separase was developed. It is known that fungal securin can be converted to a separase substrate by making mutations that convert the pseudosubstrate site into a cleavage site⁴. The equivalent mutations were made in human securin (¹¹⁸FP to RE) and this securin^RE mutant was used to test the importance of ¹³⁰LPE for securin engagement with separase. An LP sequence a few residues further downstream (¹³⁹LP) was also tested. […] A securin^RE fragment containing residues 93-150 was then tested. […] Mutation of ¹³⁹LP had no effect, except when combined with mutation of ¹³⁰LP.

catalytically-dead separase with intact autocleavage sites, sequence (Q14674 whole entry S1126A/C2029S, the tested form may be a part): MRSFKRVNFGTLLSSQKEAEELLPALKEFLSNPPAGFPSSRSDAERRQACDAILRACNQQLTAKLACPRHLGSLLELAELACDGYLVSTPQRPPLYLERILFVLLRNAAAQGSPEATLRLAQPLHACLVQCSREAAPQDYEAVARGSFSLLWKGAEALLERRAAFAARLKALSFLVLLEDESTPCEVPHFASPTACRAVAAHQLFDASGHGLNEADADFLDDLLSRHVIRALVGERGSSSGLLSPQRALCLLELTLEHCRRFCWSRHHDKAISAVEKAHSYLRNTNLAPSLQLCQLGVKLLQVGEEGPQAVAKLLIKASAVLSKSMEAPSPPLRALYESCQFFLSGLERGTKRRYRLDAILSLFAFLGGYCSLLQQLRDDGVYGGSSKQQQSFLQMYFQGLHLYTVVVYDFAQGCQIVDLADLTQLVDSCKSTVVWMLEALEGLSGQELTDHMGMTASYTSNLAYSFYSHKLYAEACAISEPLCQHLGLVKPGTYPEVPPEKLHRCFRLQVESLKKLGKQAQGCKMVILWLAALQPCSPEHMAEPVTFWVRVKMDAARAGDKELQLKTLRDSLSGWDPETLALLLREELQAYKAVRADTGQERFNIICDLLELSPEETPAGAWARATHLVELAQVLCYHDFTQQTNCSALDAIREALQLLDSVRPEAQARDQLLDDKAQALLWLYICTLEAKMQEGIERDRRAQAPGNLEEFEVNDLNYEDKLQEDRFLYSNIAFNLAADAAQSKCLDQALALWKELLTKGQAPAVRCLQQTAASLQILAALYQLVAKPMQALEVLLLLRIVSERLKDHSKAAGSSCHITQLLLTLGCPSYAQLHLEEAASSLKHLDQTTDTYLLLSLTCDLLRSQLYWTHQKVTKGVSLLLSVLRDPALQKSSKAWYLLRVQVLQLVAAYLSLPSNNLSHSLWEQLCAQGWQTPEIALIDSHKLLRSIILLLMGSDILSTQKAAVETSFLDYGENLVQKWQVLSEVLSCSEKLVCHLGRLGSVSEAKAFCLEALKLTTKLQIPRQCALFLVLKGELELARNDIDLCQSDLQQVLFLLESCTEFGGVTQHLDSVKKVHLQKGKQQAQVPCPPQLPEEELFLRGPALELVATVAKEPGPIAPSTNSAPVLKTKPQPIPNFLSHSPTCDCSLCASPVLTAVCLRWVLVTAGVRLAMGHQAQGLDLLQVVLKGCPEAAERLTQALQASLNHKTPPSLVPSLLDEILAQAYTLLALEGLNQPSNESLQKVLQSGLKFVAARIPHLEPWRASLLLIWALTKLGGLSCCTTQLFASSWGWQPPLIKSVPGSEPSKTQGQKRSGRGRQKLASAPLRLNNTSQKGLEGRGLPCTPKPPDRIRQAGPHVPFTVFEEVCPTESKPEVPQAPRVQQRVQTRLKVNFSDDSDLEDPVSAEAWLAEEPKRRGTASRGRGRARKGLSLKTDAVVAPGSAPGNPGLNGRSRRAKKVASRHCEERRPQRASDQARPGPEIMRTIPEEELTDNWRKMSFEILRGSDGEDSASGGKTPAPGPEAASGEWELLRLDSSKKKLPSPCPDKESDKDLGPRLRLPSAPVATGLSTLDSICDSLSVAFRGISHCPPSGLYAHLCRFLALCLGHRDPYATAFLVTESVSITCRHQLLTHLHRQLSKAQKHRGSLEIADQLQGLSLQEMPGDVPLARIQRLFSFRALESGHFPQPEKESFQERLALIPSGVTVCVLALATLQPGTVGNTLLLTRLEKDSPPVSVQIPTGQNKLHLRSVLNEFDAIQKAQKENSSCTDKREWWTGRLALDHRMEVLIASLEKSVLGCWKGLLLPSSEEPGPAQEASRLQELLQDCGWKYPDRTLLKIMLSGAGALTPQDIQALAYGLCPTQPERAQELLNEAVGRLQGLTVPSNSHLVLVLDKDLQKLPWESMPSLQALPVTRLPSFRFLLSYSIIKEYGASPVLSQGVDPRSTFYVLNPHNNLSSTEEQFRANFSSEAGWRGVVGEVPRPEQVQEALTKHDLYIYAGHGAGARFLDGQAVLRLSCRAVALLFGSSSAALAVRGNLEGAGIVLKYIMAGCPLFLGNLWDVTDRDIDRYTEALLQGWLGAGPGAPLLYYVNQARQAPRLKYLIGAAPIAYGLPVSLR
T2 sequence (Q14674 other isoform, or with tags, fused parts or gaps): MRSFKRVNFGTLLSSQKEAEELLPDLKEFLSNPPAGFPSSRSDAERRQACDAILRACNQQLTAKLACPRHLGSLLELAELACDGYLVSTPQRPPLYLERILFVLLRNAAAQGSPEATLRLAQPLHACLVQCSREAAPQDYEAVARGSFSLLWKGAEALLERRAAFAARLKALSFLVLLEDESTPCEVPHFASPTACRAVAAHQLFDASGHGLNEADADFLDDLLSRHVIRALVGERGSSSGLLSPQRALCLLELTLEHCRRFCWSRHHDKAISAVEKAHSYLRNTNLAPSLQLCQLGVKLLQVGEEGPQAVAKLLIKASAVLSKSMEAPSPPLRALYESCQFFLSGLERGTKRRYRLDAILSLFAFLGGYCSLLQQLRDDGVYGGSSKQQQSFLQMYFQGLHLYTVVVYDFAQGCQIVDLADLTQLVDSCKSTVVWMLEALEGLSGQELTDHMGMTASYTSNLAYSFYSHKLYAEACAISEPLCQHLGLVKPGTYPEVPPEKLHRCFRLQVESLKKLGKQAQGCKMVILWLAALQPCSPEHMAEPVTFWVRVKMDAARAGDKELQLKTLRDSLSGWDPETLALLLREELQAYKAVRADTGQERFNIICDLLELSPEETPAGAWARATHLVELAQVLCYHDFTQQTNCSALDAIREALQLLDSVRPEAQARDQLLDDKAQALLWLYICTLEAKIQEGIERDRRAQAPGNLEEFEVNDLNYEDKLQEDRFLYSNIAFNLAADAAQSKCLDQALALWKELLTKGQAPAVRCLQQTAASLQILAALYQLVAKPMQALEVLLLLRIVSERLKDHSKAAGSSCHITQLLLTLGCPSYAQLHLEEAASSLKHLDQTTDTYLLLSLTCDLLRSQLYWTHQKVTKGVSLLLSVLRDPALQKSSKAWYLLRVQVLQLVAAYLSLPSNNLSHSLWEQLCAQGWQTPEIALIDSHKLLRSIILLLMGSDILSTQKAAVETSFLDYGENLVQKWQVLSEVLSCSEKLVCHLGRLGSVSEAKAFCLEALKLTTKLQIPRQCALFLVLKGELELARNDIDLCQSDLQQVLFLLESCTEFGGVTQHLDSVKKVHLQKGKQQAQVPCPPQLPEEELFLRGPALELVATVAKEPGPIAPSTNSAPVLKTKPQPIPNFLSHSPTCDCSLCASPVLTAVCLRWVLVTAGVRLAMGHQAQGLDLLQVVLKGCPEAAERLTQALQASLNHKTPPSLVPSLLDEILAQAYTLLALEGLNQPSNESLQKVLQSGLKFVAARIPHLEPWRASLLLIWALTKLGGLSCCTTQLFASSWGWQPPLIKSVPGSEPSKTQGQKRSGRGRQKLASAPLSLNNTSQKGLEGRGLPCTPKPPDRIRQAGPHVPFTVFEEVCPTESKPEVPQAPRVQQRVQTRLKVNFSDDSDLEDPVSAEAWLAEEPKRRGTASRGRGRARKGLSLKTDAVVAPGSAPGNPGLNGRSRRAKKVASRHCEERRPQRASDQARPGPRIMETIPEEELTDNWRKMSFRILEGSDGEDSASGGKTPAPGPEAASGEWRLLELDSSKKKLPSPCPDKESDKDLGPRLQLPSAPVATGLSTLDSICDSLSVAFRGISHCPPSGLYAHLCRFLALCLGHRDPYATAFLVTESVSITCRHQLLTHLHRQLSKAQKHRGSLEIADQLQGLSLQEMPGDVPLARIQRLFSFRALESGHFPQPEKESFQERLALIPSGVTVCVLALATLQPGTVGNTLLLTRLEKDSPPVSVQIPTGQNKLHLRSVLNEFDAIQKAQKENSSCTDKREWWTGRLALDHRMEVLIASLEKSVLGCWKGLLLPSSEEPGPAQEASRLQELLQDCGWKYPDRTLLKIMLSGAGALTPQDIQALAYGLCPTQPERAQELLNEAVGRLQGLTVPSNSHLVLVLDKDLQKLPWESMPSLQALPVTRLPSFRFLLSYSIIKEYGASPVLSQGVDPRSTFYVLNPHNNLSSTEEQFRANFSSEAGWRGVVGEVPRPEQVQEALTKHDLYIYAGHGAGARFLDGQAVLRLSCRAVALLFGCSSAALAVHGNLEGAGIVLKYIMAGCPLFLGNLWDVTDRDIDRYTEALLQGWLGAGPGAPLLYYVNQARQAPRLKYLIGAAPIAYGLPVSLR

securinΔ138-separase
cleavage of the Scc1 fragment in the gel-based assay [1]: exhibited efficient cleavage of the Scc1 substrate | peptide cleavage activity (Michaelis-Menten) [2]: no significant differences between the peptide cleavage activities of the three securinΔ-separase proteins and separase with no securin bound

separase in human U2OS cells (endogenous)
biosensor cleavage efficiency [3]: reduced cleavage efficiency by 50% | biosensor cleavage efficiency [4]: yielded identical results as the double alanine mutation | biosensor cleavage during anaphase [5]: efficient biosensor cleavage was observed during anaphase

securinΔ127-separase
cleavage of the Scc1 fragment in the gel-based assay [1]: exhibited no cleavage activity in this assay | peptide cleavage activity (Michaelis-Menten) [2]: no significant differences between the peptide cleavage activities of the three securinΔ-separase proteins and separase with no securin bound

securinΔ160-separase
cleavage of the Scc1 fragment in the gel-based assay [1]: exhibited efficient cleavage of the Scc1 substrate | peptide cleavage activity (Michaelis-Menten) [2]: no significant differences between the peptide cleavage activities of the three securinΔ-separase proteins and separase with no securin bound

active human separase, securin-free (ClpXP-activated separase obtained from the securin-separase fusion after TEV protease cleavage and ClpXP removal of securin)
cleavage of an Scc1 fragment in vitro [1]: incubation with purified ClpXP removed securin and activated separase, as evaluated by cleavage of an Scc1 fragment in vitro | KM [2]: KM of 70±30 µM | cleavage in trans [6]: Separase also cleaved a catalytically-dead separase with intact autocleavage sites | cleavage of securin^RE fragment [7]: This fragment was 50% cleaved by separase

B1: securin^RE fragment containing residues 93-150 (other)
chain: MTEKTVKAKSSVPASDDAYPEIEKFREFNPLDFESFDLPEEHQIAHLPLSGVPLMILD
modifications: also: 35S-methionine label
notes: Pseudosubstrate motif converted into a separase cleavage site; Translated in vitro with ZZ tag, released by TEV protease; also called 35S-labeled securin fragment (aa 93-150)
binding result [8]: binds
